Data on 21 variants can be found in the RNAGym collection of RNA variant scans (doi:10.1073/pnas.2313332121).

B1: TPR t1 (parent)
chain: GACCAAUCUGCCCUCAGAGCUCGAGAACAUCUUCGGAUGCAGAGGAGGCAGGCUUCGGUGGCGCGAUAGCGCCAACGUCCUCAACCUCCAAUGCAUCCCACCACAUGAUGAUGCCUGAAGAGCCUUGGUUUUUUG

Variants of B1 are the subject of the data set. The data set can be described thus: polymerase ribozyme fitness, log enrichment relative to wild type (log ratio); higher = more active; in vitro selection for triplet polymerase activity. A digest of the protocol:
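Libraries of mutants in each subunit of a heterodimeric triplet polymerase ribozyme were generated by PCR and transcribed. In triplicate, each went through one in vitro selection round: annealing with biotinylated primer, partner subunit and triplets; frozen incubation at −7 °C; gel excision of extended constructs; streptavidin-bead capture; RT-PCR. Fitness, taken from Illumina sequencing of input and output libraries, is the logarithm of a genotype's enrichment over wild-type enrichment, averaged across replicates with inverse-variance weights. The logarithm is base 2, and genotypes needed ≥10 input reads and ≥1 read per output to be kept.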
Regarding GACCAAUCUGCCCUCAGAGCUCGAGAACAUCUUCGGAUGCAGAGGAGGCAGGCUUCGGUGGCACGAUAGCGCCAACGUCCUCCACCUCCAAUGCAUCCCACCACAUGAUGAUGCCUGAAGAGCCUUACUUUUUUG, the “polymerase ribozyme fitness (log ratio)” value is -3.2. Regarding GACCAAUCUGCCCUCAGAGCUCGAGAACAUCUUCGGAUGCAGAGGAGGCAGGCUUCGGUGGCACGAUAGCGCCAACGUCCUCAACCUCCAAUGCAUCCCACCACGUGAUGAUGCCUGAAGAGCGUUGGUUUUUUG, the “polymerase ribozyme fitness (log ratio)” value was -2.8.

Consider GACCAAUCUGCCCUCAGAGCUCGAGAACAUCUUCGGAUGCAGAGGAGGCAGGCUUCGGUGGCACGAUAGCGCCAACGUCCUCAACCUCCAAUGCAUCCCACCACAUGAUGAUGCCUGAUGAGCCUUGGUUUUUUG, for which the “polymerase ribozyme fitness (log ratio)” value was -1.29.

Consider GACCAAUCUGCCCUCAGAGCUCGAGAACAUCUUCGGAUGCAGAGGAGGCAGGCUUCGGUGGUGCGAUAGCGCCAACGUCCUCAACCUCCAAUGCAUCCCACCACAGGAUGAUGCCUGAAGUUCCUUGGUUUUUUG, for which the “polymerase ribozyme fitness (log ratio)” value is -1.15.

With GACCAAUCUGCCCUCAGAGCUCGAGAACAUCUUCGGAUGCAGAGGAGGCAGGCUUCGGUGGCACGAUAGCGCCAACGUCCUCAACCUCCAAUGCAUCCCACUACAUGAUGAUGCCUGAAGAGCCUUGGUUUUGUG, the “polymerase ribozyme fitness (log ratio)” value is -2.77.

For GACCAAUCUGCCCUCAGAGCUCGAGAACAUCUUCGGAUGCAGAGGAGGCAGGCUUCGGUGGCACGAUAGCGCCAACGUCCUCAACCUCAAAUGCAUCCCACCACAUGAUGAUGCGUGAAGAGCCUUGGUUUUUUG, the “polymerase ribozyme fitness (log ratio)” value is -4.92. For the variant GACCAAUCUGCCCUCAGAGCUCGAGAACAUCUUCGGAUGCAGAGGAGGCAGGCUUCGGUGGCACGAUAGCGCCAACGUCCUCAAACUCCAAUGCAUCCCACCACAUGAUGAUGCUUGAAGAGCCUUGGUUUUUUG, the “polymerase ribozyme fitness (log ratio)” value was -4.85. The figure for GACCAAUCUGCCCUCAGAGCUCGAGAACAUCUUCGGAUGCAGAGGAGGCAGGCUUCGGUGGCACGAUAGCGCCAACGUCCUCAACCUCCAAUGCAUCCCACCACAUGAUGAUGCCUGAAGAGCAUUGGUUUUUUG is 0.45; for GACCAAUCUGCCCUCAGAGCUCGAGAACAUCUUCGGAUGCAGAGGAGGCAGGCUUCGGUGGCACGAUAGCGCCAACGUCCUCAACCUCCAAUGCAUCCCACCACAUGAUGAUGCCUGAAGAGCGUUGGUUUUUUG it is 0.684. For the variant GACCAAUCUGCCCUCAGAGCUCGAGAACAUCUUCGGAUGCAGAGGAGGCAGGCUUCGGUGGCACGAUAGCGCCAACGUACUCAACCUCCAAUGCAUCCCACCACAUGAUGAUGCCUGAAGAGCCUUGGUUUUUUG, the “polymerase ribozyme fitness (log ratio)” value is -3.48. In the case of GACCAAUCUGCCCUCAGAGCUCGAGAACAUCUUCGGAUGCAGAGGAGGCAGGCUUCGGUGGCACGAUAGCGCCAACGUCCUCAACCUCCAAUGCAUCCCACCUCAUGAUGAUGCCUGAAGAGCCUUGGUUUUUUG, the “polymerase ribozyme fitness (log ratio)” value was -6.64. On to GACCAAUCUGCCCUCAGAGCUCGAGAACAUCUUCGGAUGCAGAGGAGGCAGGCUUCGGUGGCACGAUAGCGCCAACGUCCUCAACCUCCAAUGCAUCCCACCACAUGAUGAUGCCUGAAGCGCCUUGGUUUUUUG, for which the “polymerase ribozyme fitness (log ratio)” value was 0.832.

For the variant GACCAAUCUGCCCUCAGAGCUCGAGAACAUCUUCGGAUGCAGAGGAGGCAGGCUUCGGUGGCACGAUAGCGCCAACGUCCUCAACCUCCAAUGCAUACCACCACAUGAUGAUGCCUGAAGAGCCUUGGUUUUUUG, the “polymerase ribozyme fitness (log ratio)” value is -6.64. Regarding GACCAAUCUGCCCUCAGAGCUCGAGAACAUCUUCGGAUGCAGAGGAGGCAGGCUUCGGUGGCACGAUAGCGCCAACGUCCUCAACCUCCAAUGCAUCCCACCACAUGAUGAUGCCUGAAGAGGCUUGGUUUUUUG, the “polymerase ribozyme fitness (log ratio)” value was 0.797. GACCAAUCUGCCCUCAGAGCUCGAGAACAUCUUCGGAUGCAGAGGAGGCAGGCUUCGGUGGCACGAUAGCGCCAACGUCCUCAACCUCCAAUGCAUUCCACCACAUGAUGAUGCAUGAAGAGCCUUGGUUUUUUG: the “polymerase ribozyme fitness (log ratio)” value is -0.416. The figure for GACCAAUCUGCCCUCAGAGCUCGAGAACAUCUUCGGAUGCAGAGGAGGCAGGCUUCGGUGGCACGAUAGCGCCAACGUCCUCAACCUUCAAUGCAUCCCACCACAUGAUGAUGCCUGAAGAGCCUUGGUUUUUUG is -1.46. For GACCAAUCUGCCCUCAGAGCUCGAGAACAUCUUCGGAUGCAGAGGAGGCAGGCUUCGGUGGCACGAUAGCGCCAACGUCCUCAACCUCCAAUGCAUCCCACCACAUGAUGAUGCCUGAGGAGCCUUUGUUUUUUG the value was 0.478.

Consider GACCAAUCUGCCCUCAGAGCUCGAGAACAUCUUCGGAUGCAGAGGAGGCAGGCUUCGGUGGUGCGAUAGCGCCAACGUCCUCAACCUCCAAUGCAUCCCACCACACGAUGAUGCCUGAAGAGCCUUGGUUUUUUG, for which the “polymerase ribozyme fitness (log ratio)” value is -0.141. The figure for GACCAAUCUGCCCUCAGAGCUCGAGAACAUCUUCGGAUGCAGAGGAGGCAGGCUUCGGUGGUGCGAUAGCGCCAACGUCCUCAACCUCCAAUGCAUCCCACCACAUGAUGAUGCCUGAAGAGCCUUGGUUUUAUG is -0.403. The figure for GACCAAUCUGCCCUCAGAGCUCGAGAACAUCUUCGGAUGCAGAGGAGGCAGGCUUCGGUGGCACGAUAGCGCCAACGCCCUCACCCUCCAAUGCAGCCCACCACAUGAUGAUGCCGGAAGAGCCUUGGUUUUUUG is -4.46.

GACCAAUCUGCCCUCAGAGCUCGAGAACAUCUUCGGAUGCAGAGGAGGCAGGCUUCGGUGGCACGAUAGCGCCAACGUCCUCAACCUCCAAUGCAUCCCACCAAAUGAUGAUGCCUGAAGAGCCUUGGUUUAUUU: the “polymerase ribozyme fitness (log ratio)” value was -3.28.
